The source of these data is patent publication US20050130265A1.

The target in the assay is Aiolos (mouse) (UniProt O08900). As to the kind of experiment: cell-based or functional assay.
Sequence of Aiolos (mouse) (O08900 other isoform, or with tags, fused parts or gaps limits assumed): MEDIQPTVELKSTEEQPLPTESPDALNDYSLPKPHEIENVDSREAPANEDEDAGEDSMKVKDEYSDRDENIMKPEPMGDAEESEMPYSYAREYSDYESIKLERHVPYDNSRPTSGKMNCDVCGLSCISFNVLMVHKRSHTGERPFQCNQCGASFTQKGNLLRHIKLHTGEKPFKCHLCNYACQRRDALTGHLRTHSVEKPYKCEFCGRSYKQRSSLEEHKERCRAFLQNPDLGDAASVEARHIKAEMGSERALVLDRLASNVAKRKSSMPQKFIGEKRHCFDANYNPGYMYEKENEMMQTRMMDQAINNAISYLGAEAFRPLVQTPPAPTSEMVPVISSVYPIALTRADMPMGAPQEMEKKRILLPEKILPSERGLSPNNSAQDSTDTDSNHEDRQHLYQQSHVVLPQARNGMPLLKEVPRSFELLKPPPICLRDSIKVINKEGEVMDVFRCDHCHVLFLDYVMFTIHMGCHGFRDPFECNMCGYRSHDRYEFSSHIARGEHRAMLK

The substance “Ikaros isoform Ik-6 (from UniProt Q03267 1-288)” had a CAT activity from the 4xIK-BS1-tkCAT reporter in transfected NIH-3T3 cells of 65 % reduction.
